Substitutions are numbered along the chain they refer to.
T1: MAGEC2 peptide on HLA-A*02 (human)
T1 peptide: FVYGEPREL

T2: MAGEC2 peptide on HLA-A*02 (human)
T2 peptide: ALIEVGPDHFCV

B1: TCR of SEQ ID NOs 36 and 37 (TCR, V domains shown)
Valpha: KQEVTQIPAALSVPEGENLVLNCSFTDSAIYNLQWFRQDPGKGLTSLLLIQSSQREQTSGRLNASLDKSSGRSTLYIAASQPGDSATYLCAVTGGTSYGKLTFGQGTILTVHP
Vbeta: NAGVTQTPKFRILKIGQSMTLQCTQDMNHNYMYWYRQDPGMGLKLIYYSVGAGITDKGEVPNGYNVSRSTTEDFPLRLELAAPSQTSVYFCASSYWAGVLTEAFFGQGTRLTVV
B2: TCR of SEQ ID NOs 34 and 35 (TCR, V domains shown)
Valpha: KQEVTQIPAALSVPEGENLVLNCSFTDSAIYNLQWFRQDPGKGLTSLLLIQSSQREQTSGRLNASLDKSSGRSTLYIAASQPGDSATYLCAVTGNTPLVFGKGTRLSVIA
Vbeta: NAGVTQTPKFQVLKTGQSMTLQCAQDMNHEYMSWYRQDPGMGLRLIHYSVGAGITDQGEVPNGYNVSRSTTEDFPLRLLSAAPSQTSVYFCASSYSPYYEQYFGPGTRLTVT
B3: TCR of SEQ ID NOs 32 and 33 (TCR, V domains shown)
Valpha: KQEVTQIPAALSVPEGENLVLNCSFTDSAIYNLQWFRQDPGKGLTSLLLIQSSQREQTSGRLNASLDKSSGRSTLYIAASQPGDSATYLCAVREWDARLMFGDGTQLVVKP
Vbeta: NAGVTQTPKFQVLKTGQSMTLQCAQDMNHNSMYWYRQDPGMGLRLIYYSASEGTTDKGEVPNGYNVSRLNKREFSLRLESAAPSQTSVYFCASSLLRGWTEAFFGQGTRLTVV
B4: TCR of SEQ ID NOs 30 and 31 (TCR, V domains shown)
Valpha: KQEVTQIPAALSVPEGENLVLNCSFTDSAIYNLQWFRQDPGKGLTSLLLIQSSQREQTSGRLNASLDKSSGRSTLYIAASQPGDSATYLCAVNEGSNYKLTFGKGTLLTVNP
Vbeta: NAGVTQTPKFRILKIGQSMTLQCTQDMNHNYMYWYRQDPGMGLKLIYYSVGAGITDKGEVPNGYNVSRSTTEDFPLRLELAAPSQTSVYFCASSYSSPHYGYTFGSGTRLTVV
B5: TCR of SEQ ID NOs 26 and 27 (TCR, V domains shown)
Valpha: B3 Valpha with R93V, E94D, W95S, D96W, A97G, R98K, M100Q, D103A, L107V, K110T
Vbeta: NAGVTQTPKFQVLKTGQSMTLQCAQDMNHNSMYWYRQDPGMGLRLIHYSVGAGITDQGEVPNGYNVSRSTTEDFPLRLLSAAPSQTSVYFCASSPWGGATEAFFGQGTRLTVV
B6: TCR of SEQ ID NOs 28 and 29 (TCR, V domains shown)
Valpha: KQEVTQIPAALSVPEGENLVLNCSFTDSAIYNLQWFRQDPGKGLTSLLLIQSSQREQTSGRLNASLDKSSGRSTLYIAASQPGDSATYLCAVKGRGTYKYIFGTGTRLKVLA
Vbeta: NAGVTQTPKFRVLKTGQSMTLQCAQDMNHNSMYWYRQDPGMGLRLIYYSASEGTTDKGEVPNGYNVSRLNKREFSLRLESAAPSQTSVYFCASSYYGGSGAGYEQYFGPGTRLTVT

Target: T1, MAGEC2 peptide on HLA-A*02
Experiment: binding, other

Binding result, recognises:
B1
B2
B3

Target: T2, MAGEC2 peptide on HLA-A*02
Experiment: binding, other

Binding result, recognises:
B4
B5
B6
